From patent publication US20110243941A1

Target: wild type CH1-CH3 Fc fusion protein displayed on yeast (pYD-CH1) (human)
Experiment: FACS titration 1.4 to 0.0006 µM on yeast-displayed Fc, MFI, nonlinear regression

Substance: soluble FcγRIIIA tetrameric complex (biotinylated FcγRIIIA-AVITAG on streptavidin-phycoerythrin) (from UniProt P08637 17-203) (receptor)
- Kd: 6 nM
